Source: patent US20220251192A1 (Memorial Sloan Kettering, published 2022)
Where a chain is given by its changes, count along the chain named. Each block holds one binder with its values, some of them ahead of it.

Molecular target: T1, CD33 (UniProt P20138 18-259, limits assumed)
T1 construct: CD33 protein used as the active surface in the Biacore assay (about 1000 RU); also called Siglec-3; SIGLEC3
Assay: SPR, Biacore T-200, CD33 amine-coupled on CM5 chip, antibody as analyte (31-500 nM)
Experimental: To determine whether humanized anti-CD33 My96 antibodies bind to CD33 with equal affinity as the chimeric form, surface plasmon resonance assay using Biacore T-200 was performed. Biacore T-200 Biosensor, CM5 sensor chip, and related reagents were purchased from GE Healthcare. CD33 as the active surfaces and blank as the reference were immobilized onto the CM5 sensor chip at around 1000 RU (response units) using the Amino Coupling kit (GE Healthcare). CD33 antibodies and relevant control antibodies were diluted in HBS-EP buffer (0.01 M HEPES pH 7.4, 0.15 M NaCl, 3 mM EDTA, 0.05% v/v Surfactant P20) at varying concentrations (31-500 nM) prior to analysis. Samples were injected over the sensor surface at a flow rate of 30 μL/min over 1 min. Following completion of the association phase, dissociation was monitored in HBS-EP buffer for 3 min at the same flow rate or for 30 minutes at 37° C. for antibodies with slow koff. At the end of each cycle, the surface was regenerated using 10 mM NaOH at a flow rate of 50 μL/min over 30 sec. The biosensor curves obtained following injection of the samples over active surface were subtracted from the control curves obtained with the samples injected over reference surface prior to kinetics analysis. The data were analyzed using the Biacore T-200 evaluation software. As shown in the Table below, the humanized anti-CD33 My96 antibodies bound with similar kₒₙ and koff as the chimeric form of the antibodies.

T1 sequence (P20138 18-259 limits assumed): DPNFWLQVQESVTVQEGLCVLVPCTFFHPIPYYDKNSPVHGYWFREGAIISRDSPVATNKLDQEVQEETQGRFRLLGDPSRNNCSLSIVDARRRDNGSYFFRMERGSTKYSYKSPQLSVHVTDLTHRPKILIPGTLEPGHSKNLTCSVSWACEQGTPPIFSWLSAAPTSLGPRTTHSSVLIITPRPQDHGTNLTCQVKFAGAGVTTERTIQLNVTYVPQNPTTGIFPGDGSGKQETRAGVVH

B2: My96-H1L2 (antibody, human IgG1, V domains shown)
VH: QVQLVQSGAEVKKPGASVKVSCKASGYTFTSYYMHWVRQAPGQGLEWMGVIYPGNDDISYAQKFQGRVTMTADTSTSTVYMELSSLRSEDTAVYYCAREVRLRYFDVWGAGTTVTVSS
VL: NIVLTQSPDSLAVSLGERATINCKSSQSVFFSSSQKNYLAWYQQKPGQPPKLLIYWASTRESGVPDRFSGSGSGTDFTLTISSLQAEDVAVYYCHQYLSSRTFGGGTKLEIK
notes: Humanized My96 IgG (human IgG1 frameworks), expressed in DG44 cells; also called humanized My96 VH-1/VL-2
Kd: 0.218 pM | koff: 1.03e-07 s⁻¹ | kon: 473000 M⁻¹ s⁻¹

B3: My96-H1L1 (antibody, human IgG1, V domains shown)
VH: B2 VH
VL: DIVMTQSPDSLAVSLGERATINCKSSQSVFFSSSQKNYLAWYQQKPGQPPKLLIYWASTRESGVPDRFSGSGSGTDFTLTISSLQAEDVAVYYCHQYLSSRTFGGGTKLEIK
notes: Humanized My96 IgG (CDRs grafted onto human IgG1 frameworks), expressed in DG44 cells; also called hMy96 H1L1; humanized My96 VH-1/VL-1
Kd: 0.321 pM | koff: 1.44e-07 s⁻¹ | kon: 447000 M⁻¹ s⁻¹

B4: My96-H1L3 (antibody, human IgG1, V domains shown)
VH: B2 VH
VL: B2 VL with K45R, S83R, L109V
notes: Humanized My96 IgG (human IgG1 frameworks), expressed in DG44 cells; also called humanized My96 VH-1/VL-3
Kd: 0.88 pM | koff: 4.95e-07 s⁻¹ | kon: 563000 M⁻¹ s⁻¹

B5: My96-H2L1 (antibody, human IgG1, V domains shown)
VH: B2 VH with A61N, T74K
VL: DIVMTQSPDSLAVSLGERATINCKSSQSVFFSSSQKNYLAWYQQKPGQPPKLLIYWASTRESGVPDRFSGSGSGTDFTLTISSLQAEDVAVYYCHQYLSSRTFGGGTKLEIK
notes: Humanized My96 IgG (human IgG1 frameworks), expressed in DG44 cells; also called hMy96 L1H2 (variable domains as in BsAb BC257); humanized My96 VH-2/VL-1
Kd: 2.42 pM | koff: 1.51e-06 s⁻¹ | kon: 623000 M⁻¹ s⁻¹

B8: My96-H2L2 (antibody, human IgG1, V domains shown)
VH: B2 VH with A61N, T74K
VL: B2 VL
notes: Humanized My96 IgG (human IgG1 frameworks), expressed in DG44 cells; also called humanized My96 VH-2/VL-2
Kd: 0.273 pM | koff: 1.42e-07 s⁻¹ | kon: 520000 M⁻¹ s⁻¹

Continued, values first:

Kd: 0.321 pM | koff: 2.38e-07 s⁻¹ | kon: 739000 M⁻¹ s⁻¹
B1: chMy96 (antibody, V domains shown)
VH: QVQLQQPGAEVVKPGASVKMSCKASGYTFTSYYIHWIKQTPGQGLEWVGVIYPGNDDISYNQKFKGKATLTADKSSTTAYMQLSSLTSEDSAVYYCAREVRLRYFDVWGAGTTVTVSS
VL: NIMLTQSPSSLAVSAGEKVTMSCKSSQSVFFSSSQKNYLAWYQQIPGQSPKLLIYWASTRESGVPDRFTGSGSGTDFTLTISSVQSEDLAIYYCHQYLSSRTFGGGTKLEIK
notes: also called chimeric form of My96; chimeric anti-CD33 antibody

Kd: 0.294 pM | koff: 1.6e-07 s⁻¹ | kon: 543000 M⁻¹ s⁻¹
B6: My96-H3L2 (antibody, human IgG1, V domains shown)
VH: B2 VH with M34I, M70I, T74K, T76A, S77T, V79A, A110Q, T113L
VL: B2 VL
notes: Humanized My96 IgG (human IgG1 frameworks), expressed in DG44 cells; also called hMy96 L2H3 (variable domains as in BsAb BC248); humanized My96 VH-3/VL-2

Kd: 0.00645 pM | koff: 3.63e-09 s⁻¹ | kon: 563000 M⁻¹ s⁻¹
B7: My96-H3L1 (antibody, human IgG1, V domains shown)
VH: B2 VH with M34I, M70I, T74K, T76A, S77T, V79A, A110Q, T113L
VL: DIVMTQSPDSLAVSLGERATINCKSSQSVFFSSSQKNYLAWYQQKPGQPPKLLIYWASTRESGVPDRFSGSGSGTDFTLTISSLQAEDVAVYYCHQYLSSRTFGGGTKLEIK
notes: Humanized My96 IgG (human IgG1 frameworks), expressed in DG44 cells; also called hMy96 L1H3 (variable domains as in BsAb BC269); humanized My96 VH-3/VL-1

Kd: 0.324 pM | koff: 2.03e-07 s⁻¹ | kon: 625000 M⁻¹ s⁻¹
B9: My96-H3L3 (antibody, human IgG1, V domains shown)
VH: B2 VH with M34I, M70I, T74K, T76A, S77T, V79A, A110Q, T113L
VL: B2 VL with K45R, S83R, L109V
notes: Humanized My96 IgG (human IgG1 frameworks), expressed in DG44 cells; also called humanized My96 VH-3/VL-3

Kd: 0.143 pM | koff: 9.16e-08 s⁻¹ | kon: 641000 M⁻¹ s⁻¹
B10: My96-H2L3 (antibody, human IgG1, V domains shown)
VH: B2 VH with A61N, T74K
VL: B2 VL with K45R, S83R, L109V
notes: Humanized My96 IgG (human IgG1 frameworks), expressed in DG44 cells; also called humanized My96 VH-2/VL-3
